The values below come from publication PMC3548793.

Test [1] has as its target GFP-tagged Sec23 (UniProt Q15436). The experiment in a line: co-immunoprecipitation (anti-GFP beads) and western blotting, single blot quantified. Conditions: HEK293 cells co-transfected; parent: 1.
Test [2] shares this target. Kind of test: co-immunoprecipitation (anti-GFP beads) and western blotting, mean of three experiments. Conditions: HEK293 cells co-transfected; parent: est. 1.0; read off a plot.
A further test addresses GFP-Sec13 (UniProt P55735). Kind of test: co-immunoprecipitation and western blotting. Conditions: parent: 0.8.
The next test deals with Sec23 (UniProt Q15436). The experiment in a line: anti-GFP co-IP, anti-FLAG blot. Conditions: reference: wild type; sites S527,S799.

FLAG-tagged wild type (WT) Sec31 (from UniProt O94979) S527A; S799A; T1163A; T1165A, sequence (O94979 whole entry, stated change not applied): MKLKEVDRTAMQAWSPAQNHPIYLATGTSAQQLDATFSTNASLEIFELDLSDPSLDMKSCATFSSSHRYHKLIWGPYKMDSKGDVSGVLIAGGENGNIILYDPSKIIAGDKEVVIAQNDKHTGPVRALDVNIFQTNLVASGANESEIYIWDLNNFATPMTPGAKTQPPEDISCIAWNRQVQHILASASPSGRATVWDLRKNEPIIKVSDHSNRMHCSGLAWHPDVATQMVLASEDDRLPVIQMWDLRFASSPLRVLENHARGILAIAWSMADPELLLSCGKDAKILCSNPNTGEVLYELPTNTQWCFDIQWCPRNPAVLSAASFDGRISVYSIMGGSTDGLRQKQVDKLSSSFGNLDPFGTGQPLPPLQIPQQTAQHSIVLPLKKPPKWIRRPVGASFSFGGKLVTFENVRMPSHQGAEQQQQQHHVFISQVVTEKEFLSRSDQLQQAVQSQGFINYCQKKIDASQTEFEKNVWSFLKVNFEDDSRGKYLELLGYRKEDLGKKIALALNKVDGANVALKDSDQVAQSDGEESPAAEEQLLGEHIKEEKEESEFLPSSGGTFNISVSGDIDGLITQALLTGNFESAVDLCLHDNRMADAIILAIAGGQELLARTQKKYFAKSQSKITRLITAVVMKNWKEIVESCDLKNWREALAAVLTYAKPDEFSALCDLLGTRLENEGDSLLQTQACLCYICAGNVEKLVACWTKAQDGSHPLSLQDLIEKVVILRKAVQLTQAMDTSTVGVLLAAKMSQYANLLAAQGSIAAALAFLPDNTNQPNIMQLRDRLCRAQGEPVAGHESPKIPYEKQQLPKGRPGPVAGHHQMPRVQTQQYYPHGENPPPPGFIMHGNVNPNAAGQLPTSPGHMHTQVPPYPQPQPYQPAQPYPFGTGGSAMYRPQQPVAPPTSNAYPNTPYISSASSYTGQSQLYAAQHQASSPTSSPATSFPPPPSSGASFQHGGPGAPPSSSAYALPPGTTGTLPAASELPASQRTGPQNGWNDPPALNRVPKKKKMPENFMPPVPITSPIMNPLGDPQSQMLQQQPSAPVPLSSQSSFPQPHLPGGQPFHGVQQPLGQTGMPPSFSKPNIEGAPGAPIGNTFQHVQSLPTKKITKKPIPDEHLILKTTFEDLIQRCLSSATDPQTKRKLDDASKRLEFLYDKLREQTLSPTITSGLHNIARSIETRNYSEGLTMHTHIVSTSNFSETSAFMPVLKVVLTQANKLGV
GFP-tagged Sec23, sequence (Q15436 whole entry): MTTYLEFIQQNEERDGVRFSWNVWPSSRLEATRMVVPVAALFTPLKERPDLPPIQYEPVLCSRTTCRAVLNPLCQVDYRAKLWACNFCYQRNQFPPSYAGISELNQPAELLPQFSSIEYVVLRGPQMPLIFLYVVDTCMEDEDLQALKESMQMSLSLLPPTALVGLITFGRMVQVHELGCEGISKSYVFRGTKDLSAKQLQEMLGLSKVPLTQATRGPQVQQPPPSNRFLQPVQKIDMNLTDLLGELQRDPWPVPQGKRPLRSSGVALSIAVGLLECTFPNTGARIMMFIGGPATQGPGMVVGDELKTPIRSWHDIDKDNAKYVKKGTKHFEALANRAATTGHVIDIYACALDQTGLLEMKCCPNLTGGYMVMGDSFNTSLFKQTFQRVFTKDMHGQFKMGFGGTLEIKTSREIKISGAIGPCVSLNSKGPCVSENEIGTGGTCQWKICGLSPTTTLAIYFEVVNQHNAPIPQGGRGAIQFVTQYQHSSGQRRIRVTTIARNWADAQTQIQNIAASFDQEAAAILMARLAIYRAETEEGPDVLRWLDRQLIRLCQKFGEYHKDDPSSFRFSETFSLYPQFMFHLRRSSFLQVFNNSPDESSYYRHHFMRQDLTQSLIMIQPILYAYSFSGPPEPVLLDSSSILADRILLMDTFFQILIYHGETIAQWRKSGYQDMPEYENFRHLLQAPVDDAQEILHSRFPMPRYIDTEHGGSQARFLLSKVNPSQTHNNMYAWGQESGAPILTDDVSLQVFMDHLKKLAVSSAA
FLAG-tagged wild type (WT) Sec31 (from UniProt O94979) W985A, sequence (O94979 whole entry, stated change not applied): as the sequence (O94979 whole entry, stated change not applied) above
GFP-Sec13, sequence (P55735 whole entry): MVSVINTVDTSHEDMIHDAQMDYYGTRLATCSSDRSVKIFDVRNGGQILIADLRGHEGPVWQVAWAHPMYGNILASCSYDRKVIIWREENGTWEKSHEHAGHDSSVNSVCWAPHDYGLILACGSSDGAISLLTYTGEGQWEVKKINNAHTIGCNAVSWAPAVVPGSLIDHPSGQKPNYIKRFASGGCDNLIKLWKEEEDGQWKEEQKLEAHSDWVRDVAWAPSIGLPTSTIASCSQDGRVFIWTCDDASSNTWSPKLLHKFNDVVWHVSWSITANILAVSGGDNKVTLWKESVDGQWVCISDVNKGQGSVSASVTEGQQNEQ
FLAG-tagged wild type (WT) Sec31 (from UniProt O94979) T1163A, sequence (O94979 whole entry, stated change not applied): as the sequence (O94979 whole entry, stated change not applied) above

For the substance “FLAG-tagged wild type (WT) Sec31 (from UniProt O94979) S527A; S799A; T1163A; T1165A”, the figures for the ratio to parent in the test with GFP-tagged Sec23 [1] and in the test with GFP-tagged Sec23 [2] were 3.2 and 3.1, respectively. Moreover, in the test with GFP-Sec13, the other: normalized ratio of co-IP'ed Sec31 worked out at 1.4. “FLAG-tagged wild type (WT) Sec31 (from UniProt O94979) T1163A”: in the test with GFP-Sec13, the other: normalized ratio of co-IP'ed Sec31 stood at 1.1. In the case of “FLAG-tagged wild type (WT) Sec31 (from UniProt O94979) W985A”, the ratio to parent turned out to be 0.3 in the test with GFP-tagged Sec23 [1] and 0.33 with GFP-tagged Sec23 [2].

In the case of Sec31 (from UniProt O94979) S527A/S799A, the fold change result in the test with Sec23 is listed as “stronger”.
